# Source: paper PMC4197441, “Phosphoinositide 3-kinase p85beta regulates invadopodium formation” (Biology Open, 2014)
# Molecular target: T1, focal adhesion kinase (mouse (endogenous in NIH3T3), UniProt P34152 1-1052)
# T1 construct: focal adhesion kinase (FAK), endogenous in NIH3T3 fibroblasts, immunoprecipitated with anti-FAK Ab (BD Bioscience); also called FAK; Ptk2; source: endogenous, NIH3T3 cell extract
# Assay: co-IP; NIH3T3 cell extracts (500 µg, TX-100 lysis buffer) immunoprecipitated with anti-FAK Ab, WB with anti-HA Ab; cells without serum 16 h, then 10% serum (in suspension), FN, or FN plus serum for 20 or 60 min
# Conditions: partners not purified
# T1 sequence (P34152 whole entry): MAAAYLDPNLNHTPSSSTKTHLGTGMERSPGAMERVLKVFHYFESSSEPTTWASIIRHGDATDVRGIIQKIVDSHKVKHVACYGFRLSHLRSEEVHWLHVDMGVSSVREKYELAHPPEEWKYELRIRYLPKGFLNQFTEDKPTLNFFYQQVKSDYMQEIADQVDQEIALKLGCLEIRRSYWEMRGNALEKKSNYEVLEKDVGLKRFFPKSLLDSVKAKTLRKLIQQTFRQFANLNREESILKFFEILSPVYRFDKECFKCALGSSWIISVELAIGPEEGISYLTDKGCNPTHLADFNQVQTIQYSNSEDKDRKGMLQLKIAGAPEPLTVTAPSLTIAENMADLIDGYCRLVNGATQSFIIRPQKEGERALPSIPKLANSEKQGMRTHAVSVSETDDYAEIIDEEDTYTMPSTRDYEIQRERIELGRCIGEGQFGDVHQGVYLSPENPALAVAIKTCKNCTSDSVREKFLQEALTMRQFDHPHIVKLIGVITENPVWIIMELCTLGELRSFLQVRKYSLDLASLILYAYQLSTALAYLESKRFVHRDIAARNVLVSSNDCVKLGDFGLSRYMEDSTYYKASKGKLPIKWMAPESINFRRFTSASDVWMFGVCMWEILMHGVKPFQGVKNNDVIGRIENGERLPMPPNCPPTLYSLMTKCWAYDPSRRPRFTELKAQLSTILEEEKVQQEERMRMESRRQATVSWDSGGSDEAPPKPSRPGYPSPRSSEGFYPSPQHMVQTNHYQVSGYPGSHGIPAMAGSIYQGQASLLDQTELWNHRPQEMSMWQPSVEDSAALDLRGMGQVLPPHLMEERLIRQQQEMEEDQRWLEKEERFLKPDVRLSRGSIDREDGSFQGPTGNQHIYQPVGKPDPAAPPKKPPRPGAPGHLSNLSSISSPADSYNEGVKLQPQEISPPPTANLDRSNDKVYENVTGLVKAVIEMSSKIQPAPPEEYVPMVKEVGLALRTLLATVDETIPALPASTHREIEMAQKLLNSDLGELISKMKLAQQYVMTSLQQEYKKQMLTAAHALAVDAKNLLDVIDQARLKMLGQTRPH
binder,measurement,value
"recombinant HA-tagged p85β (regulatory subunit of phosphoinositide 3-kinase) (natural protein, p85β regulatory subunit of PI3K, murine cDNA (from pT7/T3-U19) subcloned into pSG5; the p85β ATG codon was replaced with a proline residue and the ATG of the HA tag kept; The only change is the first methionine to proline at the junction with the N-terminal HA tag; also called rHAp85β; HA-p85β; source: NIH3T3, transfected (pSG5), in cell extract; not shown: HA, N-terminal, kept) not shown",fold amount co-precipitated with FAK relative to rHAp85α,5 fold
